In patent US9011842:

Test system: T1, 33-mer peptide fragment of α-gliadin, LQLQPFPQPQLPYPQPQLPYPQPQLPYPQPQPF (SEQ ID NO:1)
T1 sequence: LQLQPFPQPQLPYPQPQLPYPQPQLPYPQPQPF

Substance: pepsin
- digestion of the 33-mer peptide (HPLC-MS), in vitro gastrointestinal model, digestive enzymes only: The digestive enzymes only (pepsin, trypsin, and chymotrypsin) failed to digest the 33-mer peptide
- hydrolysis of the 33-mer peptide (HPLC-MS), 15 hours, SGF pH 2.0: At gastric conditions (pH≈2.0), pepsin did not hydrolyze most of the 33-mer peptide

Substance: Aspergillus niger prolyl endopeptidase
- hydrolysis of the 33-mer peptide (HPLC-MS and ELISA), pH 5.0: CPY, MX-PEP, and AN-PEP hydrolyze the 33-mer peptide. AN-PEP appears to have the strongest activity against the 33-mer peptide, followed by CPY and then MX-PEP

Substance: chymotrypsin
- digestion of the 33-mer peptide (HPLC-MS), in vitro gastrointestinal model, digestive enzymes only: The digestive enzymes only (pepsin, trypsin, and chymotrypsin) failed to digest the 33-mer peptide

Substance: Aorsin A
- degradation of the 33-mer peptide (ELISA of intact 33-mer), 240 min, pH 4.0: Incubation with either Aorsin A or B for about 240 minutes resulted in complete degradation of the 33-mer peptide
- hydrolysis of the 33-mer peptide (HPLC-MS), citrate buffer pH 4.0: When incubated with the 33-mer peptide in acidic conditions (pH≈4.0), Aorsin A hydrolyzed the 33-mer

Substance: trypsin
- digestion of the 33-mer peptide (HPLC-MS), in vitro gastrointestinal model, digestive enzymes only: The digestive enzymes only (pepsin, trypsin, and chymotrypsin) failed to digest the 33-mer peptide

Substance: Aorsin B
- degradation of the 33-mer peptide (ELISA of intact 33-mer), 240 min, pH 4.0: Incubation with either Aorsin A or B for about 240 minutes resulted in complete degradation of the 33-mer peptide
- hydrolysis of the 33-mer peptide (HPLC-MS), citrate buffer pH 4.0: when incubated with the 33-mer peptide in acidic conditions (pH≈4.0), Aorsin B hydrolyzed the 33-mer

Substance: Neutral protease I
- degradation of the 33-mer peptide (ELISA of intact 33-mer), 0.1 mg/ml enzyme, SIF pH 6.8: NP I and NP II each exhibited a limited ability to degrade the 33-mer peptide
- percent of the 33-mer peptide degraded (ELISA), 60 min, SIF pH 6.8: NP I alone degraded about 40% of the 33-mer peptide

Substance: Myxococcus xanthus prolyl endopeptidase
- hydrolysis of the 33-mer peptide (HPLC-MS and ELISA), SIF pH 6.8: CPY, MX-PEP, and AN-PEP hydrolyze the 33-mer peptide. AN-PEP appears to have the strongest activity against the 33-mer peptide, followed by CPY and then MX-PEP
- hydrolysis of the 33-mer peptide (HPLC-MS), 4 hours, buffer pH 4.0 to 7.0: MX-PEP did not hydrolyze the 33-mer peptide at an acidic pH
